Patent US20190134153A1, “IMMUNOMODULATORY EFFECT OF INHALED KINASE INHIBITOR PEPTIDES IN LUNG” (MOERAE MATRIX, INC., priority 2017, published 2019)

Experiments:
Assay in all cases: Kinase Profiling Assay
Type in all cases: biochemical
Details in all cases: 100 μM
MSSK1(h) = MSSK1(h) (Homo sapiens, UniProt Q9UPE1)
cSRC(h) = cSRC(h) (Homo sapiens, UniProt P12931)
AMPKα2(h) = AMPKα2(h) (Homo sapiens, UniProt P54646)
TBK1(h) = biological target: T1, TBK1(h) (Homo sapiens, UniProt Q9UHD2)
T1 sequence (Q9UHD2 1-729): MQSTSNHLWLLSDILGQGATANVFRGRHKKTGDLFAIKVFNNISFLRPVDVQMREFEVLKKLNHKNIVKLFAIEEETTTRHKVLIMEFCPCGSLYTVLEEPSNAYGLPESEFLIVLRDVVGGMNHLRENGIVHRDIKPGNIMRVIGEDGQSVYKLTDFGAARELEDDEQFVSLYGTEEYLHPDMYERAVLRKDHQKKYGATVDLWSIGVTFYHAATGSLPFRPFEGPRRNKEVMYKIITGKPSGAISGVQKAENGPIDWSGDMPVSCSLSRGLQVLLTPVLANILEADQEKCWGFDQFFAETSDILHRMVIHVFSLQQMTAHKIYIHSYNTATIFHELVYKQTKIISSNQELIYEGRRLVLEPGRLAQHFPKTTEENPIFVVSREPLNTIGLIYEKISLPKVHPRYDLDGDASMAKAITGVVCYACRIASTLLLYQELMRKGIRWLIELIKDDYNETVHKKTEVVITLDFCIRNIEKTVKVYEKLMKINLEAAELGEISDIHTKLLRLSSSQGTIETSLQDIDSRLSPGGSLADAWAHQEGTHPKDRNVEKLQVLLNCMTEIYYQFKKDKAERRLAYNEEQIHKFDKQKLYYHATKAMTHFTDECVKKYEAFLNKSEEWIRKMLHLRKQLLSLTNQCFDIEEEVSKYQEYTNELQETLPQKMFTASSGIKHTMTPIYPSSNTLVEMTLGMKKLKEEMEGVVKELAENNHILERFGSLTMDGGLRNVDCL

ACK1(h) = ACK1(h) (Homo sapiens, UniProt Q07912)
Pim-3(h) = Pim-3(h) (Homo sapiens, UniProt Q86V86)
CaMKI(h) = CaMKI(h) (Homo sapiens, UniProt Q14012)
PKCδ(h) = PKCδ(h) (Homo sapiens, UniProt Q05655)
EphA1(h) = biological target: T2, EphA1(h) (Homo sapiens, UniProt P21709)
T2 sequence (P21709 26-976): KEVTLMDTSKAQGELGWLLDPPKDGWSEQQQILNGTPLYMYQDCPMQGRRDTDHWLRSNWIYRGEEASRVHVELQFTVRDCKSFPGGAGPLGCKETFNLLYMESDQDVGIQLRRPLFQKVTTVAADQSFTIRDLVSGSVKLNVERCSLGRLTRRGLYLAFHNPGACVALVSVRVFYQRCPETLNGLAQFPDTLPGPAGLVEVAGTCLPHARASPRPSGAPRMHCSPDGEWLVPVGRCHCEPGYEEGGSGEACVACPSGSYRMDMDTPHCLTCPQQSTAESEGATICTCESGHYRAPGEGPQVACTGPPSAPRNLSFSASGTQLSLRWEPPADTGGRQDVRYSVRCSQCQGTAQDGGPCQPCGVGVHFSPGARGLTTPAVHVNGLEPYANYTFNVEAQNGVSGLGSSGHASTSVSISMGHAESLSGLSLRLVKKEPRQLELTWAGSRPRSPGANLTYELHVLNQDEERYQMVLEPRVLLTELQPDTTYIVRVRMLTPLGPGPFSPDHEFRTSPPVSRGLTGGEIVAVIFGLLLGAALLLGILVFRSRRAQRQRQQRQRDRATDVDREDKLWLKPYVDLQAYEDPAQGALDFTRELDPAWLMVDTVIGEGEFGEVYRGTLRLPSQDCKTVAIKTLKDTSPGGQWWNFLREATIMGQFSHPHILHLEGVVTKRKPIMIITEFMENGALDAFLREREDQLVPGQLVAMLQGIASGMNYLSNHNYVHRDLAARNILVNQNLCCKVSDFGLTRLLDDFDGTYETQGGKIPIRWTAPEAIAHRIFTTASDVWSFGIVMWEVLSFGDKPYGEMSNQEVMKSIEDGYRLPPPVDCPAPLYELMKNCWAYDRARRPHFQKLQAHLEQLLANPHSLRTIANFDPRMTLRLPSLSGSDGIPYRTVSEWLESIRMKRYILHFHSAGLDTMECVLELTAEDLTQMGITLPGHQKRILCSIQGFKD

PrKX(h) = biological target: T3, PrKX(h) (Homo sapiens, UniProt P51817)
T3 sequence (P51817 1-358): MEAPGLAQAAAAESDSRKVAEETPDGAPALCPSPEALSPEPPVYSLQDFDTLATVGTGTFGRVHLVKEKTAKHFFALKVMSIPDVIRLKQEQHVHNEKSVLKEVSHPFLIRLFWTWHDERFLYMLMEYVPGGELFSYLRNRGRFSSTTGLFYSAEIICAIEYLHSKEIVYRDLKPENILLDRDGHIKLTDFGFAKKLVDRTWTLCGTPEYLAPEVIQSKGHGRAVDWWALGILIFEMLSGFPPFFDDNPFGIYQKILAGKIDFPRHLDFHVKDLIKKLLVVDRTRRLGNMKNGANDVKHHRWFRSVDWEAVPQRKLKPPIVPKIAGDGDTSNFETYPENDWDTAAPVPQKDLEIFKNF

GRK6(h) = GRK6(h) (Homo sapiens, UniProt P43250)
Yes(h) = Yes(h) (Homo sapiens, UniProt P07947)
Chain of Yes(h) (P07947 whole entry): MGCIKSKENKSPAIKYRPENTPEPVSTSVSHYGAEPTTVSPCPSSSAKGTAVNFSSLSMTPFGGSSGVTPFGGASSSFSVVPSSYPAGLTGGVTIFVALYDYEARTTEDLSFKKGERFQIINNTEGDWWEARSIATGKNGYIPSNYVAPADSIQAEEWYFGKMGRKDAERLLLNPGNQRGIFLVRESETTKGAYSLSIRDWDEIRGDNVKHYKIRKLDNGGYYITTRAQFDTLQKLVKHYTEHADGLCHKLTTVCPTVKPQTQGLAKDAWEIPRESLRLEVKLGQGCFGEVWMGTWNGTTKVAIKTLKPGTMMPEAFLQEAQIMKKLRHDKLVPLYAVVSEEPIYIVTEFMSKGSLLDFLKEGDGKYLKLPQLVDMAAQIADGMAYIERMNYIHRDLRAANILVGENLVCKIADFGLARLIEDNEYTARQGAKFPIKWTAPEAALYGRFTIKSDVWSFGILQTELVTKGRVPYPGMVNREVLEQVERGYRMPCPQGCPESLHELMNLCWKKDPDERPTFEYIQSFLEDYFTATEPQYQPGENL

Chain of ACK1(h) (Q07912 whole entry): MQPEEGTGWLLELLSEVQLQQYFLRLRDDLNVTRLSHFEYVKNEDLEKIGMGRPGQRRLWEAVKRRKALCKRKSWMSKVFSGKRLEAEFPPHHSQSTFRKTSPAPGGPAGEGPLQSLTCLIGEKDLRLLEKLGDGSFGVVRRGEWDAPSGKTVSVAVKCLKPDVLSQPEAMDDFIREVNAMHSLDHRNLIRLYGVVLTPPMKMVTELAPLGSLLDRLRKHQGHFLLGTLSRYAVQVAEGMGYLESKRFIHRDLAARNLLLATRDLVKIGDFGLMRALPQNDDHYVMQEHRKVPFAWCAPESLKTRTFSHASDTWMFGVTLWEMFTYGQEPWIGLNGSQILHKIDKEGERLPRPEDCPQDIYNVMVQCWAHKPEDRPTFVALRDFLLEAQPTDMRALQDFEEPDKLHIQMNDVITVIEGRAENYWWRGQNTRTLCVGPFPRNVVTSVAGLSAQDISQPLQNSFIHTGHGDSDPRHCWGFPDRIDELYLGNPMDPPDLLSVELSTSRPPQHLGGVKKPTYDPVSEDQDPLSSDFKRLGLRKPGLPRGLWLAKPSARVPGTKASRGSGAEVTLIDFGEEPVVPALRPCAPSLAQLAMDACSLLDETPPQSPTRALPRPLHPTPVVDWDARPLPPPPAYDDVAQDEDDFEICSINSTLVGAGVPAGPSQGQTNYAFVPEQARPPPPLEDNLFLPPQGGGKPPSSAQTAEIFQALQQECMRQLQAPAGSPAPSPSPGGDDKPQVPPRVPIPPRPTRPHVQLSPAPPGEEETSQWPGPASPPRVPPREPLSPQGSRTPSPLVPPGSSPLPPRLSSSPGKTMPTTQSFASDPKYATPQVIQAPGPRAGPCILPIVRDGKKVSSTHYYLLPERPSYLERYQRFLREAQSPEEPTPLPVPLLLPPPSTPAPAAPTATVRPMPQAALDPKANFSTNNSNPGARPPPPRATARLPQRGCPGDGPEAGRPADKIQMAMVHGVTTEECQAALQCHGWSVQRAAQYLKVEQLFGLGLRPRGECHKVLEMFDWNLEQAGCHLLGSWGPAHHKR
Chain of GRK6(h) (P43250 whole entry): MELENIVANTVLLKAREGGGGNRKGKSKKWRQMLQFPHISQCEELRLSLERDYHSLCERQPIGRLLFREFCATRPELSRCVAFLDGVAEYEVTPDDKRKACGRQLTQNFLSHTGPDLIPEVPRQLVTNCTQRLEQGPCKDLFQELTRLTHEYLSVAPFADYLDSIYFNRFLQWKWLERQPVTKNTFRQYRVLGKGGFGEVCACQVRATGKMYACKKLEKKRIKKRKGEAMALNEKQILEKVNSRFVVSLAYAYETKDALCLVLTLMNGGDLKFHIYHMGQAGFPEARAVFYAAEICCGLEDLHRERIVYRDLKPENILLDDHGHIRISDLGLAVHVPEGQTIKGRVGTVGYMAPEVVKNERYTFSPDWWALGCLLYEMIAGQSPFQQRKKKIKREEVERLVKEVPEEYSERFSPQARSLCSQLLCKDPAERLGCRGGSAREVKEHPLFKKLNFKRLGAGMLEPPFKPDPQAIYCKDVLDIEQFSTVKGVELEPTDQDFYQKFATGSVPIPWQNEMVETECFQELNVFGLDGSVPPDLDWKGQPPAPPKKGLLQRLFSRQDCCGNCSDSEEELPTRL
Chain of AMPKα2(h) (P54646 whole entry): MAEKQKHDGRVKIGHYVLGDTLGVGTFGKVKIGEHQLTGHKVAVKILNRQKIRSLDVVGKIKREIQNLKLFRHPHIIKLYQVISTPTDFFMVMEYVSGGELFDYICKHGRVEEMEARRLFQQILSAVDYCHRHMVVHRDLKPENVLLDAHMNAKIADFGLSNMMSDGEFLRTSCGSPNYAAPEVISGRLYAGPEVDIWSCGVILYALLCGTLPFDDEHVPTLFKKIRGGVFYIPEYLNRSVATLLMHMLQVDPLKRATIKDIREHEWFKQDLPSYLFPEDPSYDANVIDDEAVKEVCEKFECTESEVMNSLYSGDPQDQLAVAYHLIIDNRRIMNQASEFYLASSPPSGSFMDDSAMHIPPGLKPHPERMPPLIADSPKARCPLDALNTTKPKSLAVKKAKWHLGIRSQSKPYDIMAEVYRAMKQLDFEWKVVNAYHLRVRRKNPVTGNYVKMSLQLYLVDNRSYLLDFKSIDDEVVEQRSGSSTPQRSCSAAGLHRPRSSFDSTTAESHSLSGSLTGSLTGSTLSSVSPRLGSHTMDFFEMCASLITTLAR
Chain of AMPKα2(h) (Q9Y478 whole entry partner): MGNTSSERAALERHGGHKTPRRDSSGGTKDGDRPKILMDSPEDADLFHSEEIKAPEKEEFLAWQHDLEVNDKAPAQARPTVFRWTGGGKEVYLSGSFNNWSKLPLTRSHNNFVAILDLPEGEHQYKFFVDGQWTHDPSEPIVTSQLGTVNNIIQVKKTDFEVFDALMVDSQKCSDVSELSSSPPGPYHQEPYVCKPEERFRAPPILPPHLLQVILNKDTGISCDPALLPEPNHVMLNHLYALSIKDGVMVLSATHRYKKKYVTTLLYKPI
Chain of AMPKα2(h) (P54619 whole entry partner): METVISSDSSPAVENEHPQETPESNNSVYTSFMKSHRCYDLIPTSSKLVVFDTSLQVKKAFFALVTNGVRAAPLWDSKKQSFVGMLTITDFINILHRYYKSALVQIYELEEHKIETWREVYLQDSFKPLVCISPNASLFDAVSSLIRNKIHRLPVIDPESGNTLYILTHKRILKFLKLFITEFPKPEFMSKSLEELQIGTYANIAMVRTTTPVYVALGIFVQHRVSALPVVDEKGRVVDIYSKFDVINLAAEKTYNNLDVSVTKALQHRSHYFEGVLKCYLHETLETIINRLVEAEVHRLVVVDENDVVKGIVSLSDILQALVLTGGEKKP
Chain of MSSK1(h) (Q9UPE1 whole entry): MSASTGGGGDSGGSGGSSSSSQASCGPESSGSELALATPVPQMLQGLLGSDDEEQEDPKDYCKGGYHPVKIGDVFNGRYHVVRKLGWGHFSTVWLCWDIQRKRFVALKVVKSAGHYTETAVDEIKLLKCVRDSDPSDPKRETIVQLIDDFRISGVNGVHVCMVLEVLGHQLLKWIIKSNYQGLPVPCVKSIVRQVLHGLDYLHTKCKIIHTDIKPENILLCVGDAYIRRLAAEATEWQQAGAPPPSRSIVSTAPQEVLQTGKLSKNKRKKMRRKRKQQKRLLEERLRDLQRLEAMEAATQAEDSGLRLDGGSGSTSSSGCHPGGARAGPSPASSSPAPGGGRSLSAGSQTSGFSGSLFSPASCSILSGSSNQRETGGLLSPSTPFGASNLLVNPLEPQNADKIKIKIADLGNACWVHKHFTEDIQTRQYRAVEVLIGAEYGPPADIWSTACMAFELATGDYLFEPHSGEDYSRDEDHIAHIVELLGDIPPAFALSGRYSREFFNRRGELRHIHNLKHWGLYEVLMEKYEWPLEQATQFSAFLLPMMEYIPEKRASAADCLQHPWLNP
Chain of PKCδ(h) (Q05655 whole entry): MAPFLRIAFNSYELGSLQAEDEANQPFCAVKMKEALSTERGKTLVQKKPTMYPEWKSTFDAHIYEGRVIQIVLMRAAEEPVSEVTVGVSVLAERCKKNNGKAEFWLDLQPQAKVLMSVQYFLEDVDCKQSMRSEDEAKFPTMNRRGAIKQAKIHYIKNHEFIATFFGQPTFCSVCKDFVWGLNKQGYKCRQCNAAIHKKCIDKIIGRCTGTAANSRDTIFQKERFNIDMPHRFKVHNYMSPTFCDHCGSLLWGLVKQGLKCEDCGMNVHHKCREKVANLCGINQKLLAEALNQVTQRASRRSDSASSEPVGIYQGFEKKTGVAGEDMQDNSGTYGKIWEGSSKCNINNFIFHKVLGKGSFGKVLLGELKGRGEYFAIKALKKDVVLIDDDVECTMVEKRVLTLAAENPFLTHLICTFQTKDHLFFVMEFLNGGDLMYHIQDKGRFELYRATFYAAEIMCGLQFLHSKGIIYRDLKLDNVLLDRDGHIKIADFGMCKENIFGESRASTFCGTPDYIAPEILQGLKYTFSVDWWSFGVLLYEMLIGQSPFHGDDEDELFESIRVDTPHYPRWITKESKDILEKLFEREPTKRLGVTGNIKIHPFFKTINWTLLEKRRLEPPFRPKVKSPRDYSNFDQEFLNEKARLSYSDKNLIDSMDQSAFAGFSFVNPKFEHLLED
Chain of CaMKI(h) (Q14012 whole entry): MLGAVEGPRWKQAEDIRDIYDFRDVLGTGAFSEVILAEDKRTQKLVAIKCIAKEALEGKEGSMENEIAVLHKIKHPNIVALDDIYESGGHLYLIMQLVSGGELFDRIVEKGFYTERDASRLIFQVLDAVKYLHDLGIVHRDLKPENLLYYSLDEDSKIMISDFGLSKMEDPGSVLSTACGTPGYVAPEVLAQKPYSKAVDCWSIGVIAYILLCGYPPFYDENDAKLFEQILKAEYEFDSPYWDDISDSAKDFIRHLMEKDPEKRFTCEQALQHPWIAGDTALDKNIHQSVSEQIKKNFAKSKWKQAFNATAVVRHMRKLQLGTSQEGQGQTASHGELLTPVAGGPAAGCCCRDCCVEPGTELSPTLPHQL

Sequence | % activity (MSSK1(h)) | % activity (cSRC(h)) | % activity (AMPKα2(h)) | % activity (TBK1(h)) | % activity (ACK1(h)) | % activity (Pim-3(h)) | % activity (CaMKI(h)) | % activity (PKCδ(h)) | % activity (EphA1(h)) | % activity (PrKX(h)) | % activity (GRK6(h)) | % activity (Yes(h))
HRRIKAWLKKIKALARQLGVAA [MMI-0500] | 22% | 30% | 9% | 16% | 64% | 37% | −1% | 61% | 40% | 57% | 174% | –
YARAAARQARAKALNRQLGVA [MMI-0200] | 100% | 32% | 88% | 98% | 97% | 94% | 21% | 101% | – | – | 132% | 93%
KAFAKLAARLYRKALARQLGVAA [MMI-0400] | 75% | 14% | 58% | 39% | 95% | 80% | 0% | 90% | 61% | 76% | 141% | 14%
FAKLAARLYRKALARQLGVAA [MMI-0300] | 77% | 26% | 54% | 37% | – | 80% | 1% | 101% | 73% | 61% | 147% | 67%
